The DeepSol protein solubility set

Test: soluble on expression in E. coli; label from the status in PepcDB or PDB records

## MGSDKIHHHHHHMFYPEKRDGFSRTGKFEVEGRTVQTPAILEVGEIPEWDFGLAPTSLKFISEELYSRLRPINEEVEILTSLHLLSPRQLVQVFEDLSKEGVSPKPLYAASSALPSNVSLLIYLGADLVDNVLAIAKAYSGIYFLGEVEVEISKLRRLPCNCIHCRNRVVDEVENLLETTAKHNTEMLRMEVEKCRRLILNEELRNYVEGKVKLNPEFTAALRLSDSLRNHSTFPRFRKSRCNFSALESSSRFEVRYFFERALECYKPFSDTVLLLPCTARKPYLTSRTHRALRSKVKVNVNEIIISSPLVVPREFELLYPAVNYDTPVTGHWSEEEVSFVAGWLKRFIEKGGFRKVVAHVTGGYRKVVERVEDEVEAEVVYTAEKDVLSDESIERLKQEIESKGKVDLYRRILEHMLSYQFGITWSGKVAGRYPELELLEGKKRLARVDRIYGMLDIYEKIAAYLLEKNIYTVEIGDFEVKGTIFAGGVLRADEKIRPNDVVVFHNSRIFGVGLAAMSGKEMAGSEKGIAINVKRKFSF
  soluble on expression in E. coli: not soluble

## MGSDKIHHHHHHMKLNTLLQRLDQTVPLAFDTSLQNPEITSLQFDDDTTLSLHPTSLYLAVSADQTITLKGSVGKTAQLSLCAQMQLKNESQLAQLFDRAGCLLTSETSLQAQVNQLAIKAITEDFDTILNQAARTLGNPLIVLDLVGQPVAQSTQAPAISDLTAPAITSVQVQQALKKFRPAKDLIPQVILIQQSQLPLLLLCLPLAYRNNALGYLVMPACVRPLTAEQTAFFKAEAKIITSSLIKNRMMPTAASKRDQLLTMLLTEQQSGTFAAQFAKEHATLPTSMVLIKGEPRAGQSLAALKERLKYLLTPLFSQTLITLYHHQCLALVSVDLPTYNNPEFKADLATIADRANCRLIVSNQYTRPEDTIAAYAVCSRTAKLKSQPTHVTMCEDAFFDLMLAQVDHAEILPFFINPAVKALMDHDAENKTELLPTLDAYLESGENLTHTARQLFIHLNTLRYRLKHISDITGIDLKDAETCFKLGASFKVRRYLNHNKLTFTR
  soluble on expression in E. coli: not soluble

## MSLGKLLFVDIGGTLLDYSNEVPRSAVDAIRKARAKGHRVYLSSGRSSAEVTSQLWDIGVDGLIGANGGYVESAQESVFHRRLSGEETRHIVEWLYNRGLEFYLESNNGLYASRGFREASKPVLSRLSEKTDVTVDSMYPDMFWGASLDRDDVNKISYIFNSQEDLDAAREAFPNLEHTTWGGQTGALFGTIGVSVNKKIGVDRLLKYLNADRANTIAFGDSDEDLSLFEASAYGVAMGEATESLKAAADLVTDAVGQDGLRNAFLKLELIDAEGHHHHHH
  soluble on expression in E. coli: soluble

## MSLAQTNQAEVGEPAPNFTLQAADGDEHSLADFEGQYVVLEWLNFGCPFVGKHYGSGNMQRLQDTYTDEGVVWLSIVSSAPGKQGYYPPGEMVEQKKKHDGNMTAILMDPEGEVGKTYDATVTPHMYVISPEGELLYRGGIDDKPTTDEADIEGATNYVRMALDAAMNGEEVRPKRAEPYGCTIKYASKEGHHHHHH
  soluble on expression in E. coli: soluble

## MNFFTSPFSGIPLDQQVTNPNIIVGKHSYYSGYYHGHSFDDCVRYLHPERDDVDKLVIGSFCSIGSGAVFMMAGNQGHRSDWISTFPFFYQDNDNFADARDGFTRSGDTIIGHDVWIGTEAMIMPGVKIGHGAIIASRSVVTKDVAPYEVVGSNPAKHIKFRFSDVEIAMLLEMAWWNWPESWLKESMQSLCSSDIEGLYLNWQSKART
  soluble on expression in E. coli: not soluble

## EGAALTEKTDIFESGRNGKPNKDGIKSYRIPALLKTDKGTLIAGADERRLHSSDWGDIGMVIRRSEDNGKTWGDRVTITNLRDNPKASDPSIGSPVNIDMVLVQDPETKRIFSIYDMFPEGKGIFGMSSQKEEAYKKIDGKTYQILYREGEKGAYTIRENGTVYTPDGKATDYRVVVDPVKPAYSDKGDLYKGNQLLGNIYFTTNKTSPFRIAKDSYLWMSYSDDDGKTWSAPQDITPMVKADWMKFLGVGPGTGIVLRNGPHKGRILIPVYTTNNVSHLNGSQSSRIIYSDDHGKTWHAGEAVNDNRQVDGQKIHSSTMNNRRAQNTESTVVQLNNGDVKLFMRGLTGDLQVATSKDGGVTWEKDIKRYPQVKDVYVQMSAIHTMHEGKEYIILSNAGGPKRENGMVHLARVEENGELTWLKHNPIQKGEFAYNSLQELGNGEYGILYEHTEKGQNAYTLSFRKFNWDFLSKDLISPTEAKVKRTREMGKGVIGLEFDSEVLV
  soluble on expression in E. coli: soluble

## TSNFFCGEPIDYRGITAHRLVGAEPRPPVSGTRYAKVPGVPDEYKTGYRPANLGRSDPDSDKSLMNIAVKNLQVYQQEPKLDKVDEFIERAAADVLGYLRFLTKGERQANLNFKAAFNTLDLSTSCGPFVPGKKIDHVKDGVMDQVLAKHLYKCWSVANSGKALHHIYACGLKDELRPLDKVKEGKKRLLWGCDVGVAVCAAAVFHNICYKLKMVARFGPIAVGVDMTSRDVDVIINNLTSKASDFLCLDYSKWDSTMSPCVVRLAIDILADCCEQTELTKSVVLTLKSHPMTILDAMIVQTKRGLPSGMPFTSVINSICHWLLWSAAVYKSCAEIGLHCSNLYEDAPFYTYGDDGVYAMTPMMVSLLPAIIENLRDYGLSPTAADKTEFIDVCPLNKISFLKRTFELTDIGWVSKLDKSSILRQLEWSKTTSRHMVIEETYDLAKEERGVQLEELQVAAAAHGQEFFNFVCRELERQQAYTQFSVYSYDAARKILADRKRVVSVVPDDEFVNVME
  soluble on expression in E. coli: soluble

## MGSDKIHHHHHHMSNTVRAISPDITLFNKTLTFQEISQNTREAVIYIHGGAWNDPENTPNDFNQLANTIKSMDTESTVCQYSIEYRLSPEITNPRNLYDAVSNITRLVKEKGLTNINMVGHSVGATFIWQILAALKDPQEKMSEAQLQMLGLLQIVKRVFLLDGIYSLKELLIEYPEYDCFTRLAFPDGIQMYEEEPSRVMPYVKKALSRFSIDMHLVHSYSDELLTLRQTNCLISCLQDYQLSFKLYLDDLGLHNDVYKNGKVAKYIFDNIC
  soluble on expression in E. coli: soluble

## MGSDKIHHHHHHMIIQSKLIRAALVCAAKNDVRYYLNGLHITPKHIEATNGSVALRMAHGIRTKKNIIVQFEGGVPAKAETTELIFSKEPIAVHRDQFQRRLSITGIKLVDGCFPDLDRIIPKKFDRCTHPVLQAGYLSYPEKMFGRERKFIPVQLRPSGDGQAVRIQFDSIINSMYGNPEFVVMPCRDHGDFNVAQEHPE
  soluble on expression in E. coli: not soluble

## MPRDNSSSSRRRRGSKRCPTGMSSNKTSRSTSSSSVTSSSGHGASSFSEDSSVRSVTNSVRSTRSAGSIMSMASAEASVVAPDLTIYHGDRKQSYQLADKGKMVVINRKNGVIVYMLRCVDGRRVYIEKSSEGASLILTNQRGKVIKALAGHY
  soluble on expression in E. coli: not soluble

## MGSDKIHHHHHHMIDLQEILANMNPNQKINYDRVMQQMAKVWEKESVRPSILMHVCCAPCSTYTLEYLTQFADITVYFANSNIHPKDEYHRRAYVTQQFVSEFNAKTGNTVQFLEADYVPNEYVRQVRGLEEEPEGGDRCRVCFDYRLDKTAQKAVELGFDYFASALTISPHKNSQTINDVGIDVQKVYTTKYLPSDFKKNNGYRRSVEMCEEYDIYRQCYCGCVYAAKMQGIDLVQVKKDAKAFMADKDLDNDFTHIRFSYRGDEM
  soluble on expression in E. coli: not soluble

## MAHHHHHHMSNCPHPRGDCGGRSVAAEGTLVPSHISCGDFTFQGGQTPRKELAGVHTSALMQPGLSSAVPSNSILSFSHDVVAAGNGMPPSVSPASSEKKKVLGTSGGGGSAEGTLNSANSSDQGPTGTPVKRNTKPLVPQQHVTKCQLTPNDAAASGLLITTPETPCNEKNPVYAAVGAARQSRERMISAENFTVIQPGGKLRTHLPPQRESGSDKKGKK
  soluble on expression in E. coli: soluble

## MSLSAAEALTRIDRFVCDIKETQYGDGLHVFGAGDHGTGEIDGLIAALSARFVPPGPSGSPYRGRSDVRPTGRNLFTTDPRAVPSRAAYTQGVKLAEELLRKHLQDHGDWPKGLVMDMWGSATIRTAGEEFAMALHLAGLSPRWDDGSDRVSGFDILPLALLNRPRIDVTLRVSGLFRDMFPGLAQLFETAIAKLAERPETAADNPYLVQTPRVFGPRPGSYGLGIGTAMDDYSDEARTAAGEAWLAASSYAIDARGEITYARDALETQLTRADSFVHLQDLPETDLLMAEDYAAHEAGFAAAMQRLGKGGAAALYHLDATRPDQPRARTLTEELARVVRARAANPDWATGMMAHGFRGAAEIAATLDHLAAFAHLAGVVPDHLFDAMFDATLGRDDLVDFMQDANPQALAALRARFDALHRAGLWTSRRNSVLAELGTPAEGHHHHHH
  soluble on expression in E. coli: soluble

## NSLTTHYRRSQLIALPVPGGKAKVEYCYAVNVPGDREIVTHSFAEWAVGDFNRQKETVLCDKLTAGSKITTECPSESFVGSRKHNGLSTSAKVMSMNASARSNSFVVNSGK
  soluble on expression in E. coli: not soluble

## LDSANQQASNESIEVRGKIKLGLLPETYEHLQPILFEFQDQYPQVELDIRNINNGFIDMFQQGLDIALHGGMLFDSDIVARKILTLDRCVVASPNYLQTHGTPATLEELSDHQCICFRWPNGNVDNLWHFQEQNVALKPKLISNNIGFIKSSTVLDRGISYIPKLLVKNELESGALVQVLSQYAVTEETGWLLYPQPKTLNQASRLLIEHLCNKIPKLL
  soluble on expression in E. coli: soluble

## MSLNNPTPKIDQTNNIVIGQKINPDKMHRAKEFRRQMTPAEKILWQHLRGNRLNGLHFRRQQIIDGFIADFYCHAARLVIEVDGKIHELQAEYDAERDRVLLARGLRLLRVKNEEVVQEIDQVLMLISEVCCEETEGHHHHHH
  soluble on expression in E. coli: soluble

## MKQWREKSRQLAERGDLTPADWSNLELYCVNYSIYRKAVADLAARGFSIVNSQGGESRNPALSAKSDAERVMIKMASLLGFDPISRRKNPPETEEEDELDRLE
  soluble on expression in E. coli: not soluble

## MSLASGNTLTYGLVVPDISNPFFASMARALQREAFNHGRVLLLGDAGDDRQHEHDLINHLLRRQVDGLLYTSVDRHPWFDLIRNSGTPCVMIDTIDSHAGISAIRVNERDAACQATRHLLQHGYRELGIFVGPLTMLNAQDRLNGWRDALIEAGITPREEWIFEAPYTRKGGYQASQKMLQGPCPRAIFTSNEQQALGCLSALAEHQLRVPDDLAIICFNGTQQSEFSVPPLSAVEQPIDAMARQAIAMLATGTAQPELHEFAFQLHIRRSEGHHHHHH
  soluble on expression in E. coli: soluble

## MAHHHHHHMNGELNIGAGRVIFYRTIAKQNRNTLPLWTLQRHLYAYHPYVWFAIASASNAEAMEKLAERLGMKLVQDATTSYKISIRRSSELLDGELNAQLQCTKMNRPWDRFLITHYVRSQMPDLRFLVRARHPIKKRVTDAYLEADILRSTRDSVQSVLSPELGEVCYCCERVIRKWAMRTQTGVTLQLVETRRTPLIITKAGDEGERLEYEWIVVLPQKAERIDIAALSAELWDYGNVLARELEPGMEEFLSHTMTAAASY
  soluble on expression in E. coli: not soluble

## MSLSRPLLFALTALSLTAASLAHAADKKAADKPAPSAVSKADKALHDKFLTLDTHLDTPAHFGRPGWDIADHHEVEHDFSQVDLPRMNQGGLDGGFFVVYIGQGELTEKGYTYARDYALHRTIEIREMLAANPDTFEMALTSDDARRIAKAGKKFAFVSMENSWPVGEDLSLVETFYKEGLRMAGPVHFRNNQLADSSTDPKGKIWNGYSPLGLRWLAEANRLGIVIDVSHASDDVVDQSVALSKAPIIASHSGPKAVYDHPRNLDDARLKKIADAGGAICINSIYLTDTTPSPERKAALEALGRAPDMKTATPEAVKAYADKRAAIDKAHPAARGDFDLYMKSMLHVLKVAGPKGVCVGADWDGGGGMDGFEDITDLPKITARLKAEGYSDADIEAIWSGNVLRIVDAAQAYAKSVTKEGHHHHHH
  soluble on expression in E. coli: soluble
